Results as given in the supplement of paper PMC12455559.
± gives the standard deviation of the averaged measurements.

Assays:
[1] = melting temperature (DSF); higher = more thermostable
Procedure, shortened: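 After expression in E. coli C41(DE3), the candidate enzymes were bound to nickel beads and released with SUMO protease. Their melting temperature was found by differential scanning fluorimetry with Sypro Orange on a Bio-Rad CFX96. Each sealed PCR plate well held 45 μL enzyme (0 to 0.3 mg/mL) plus 5 μL 5X dye, and fluorescence was read for 250 cycles from 25 °C at 0.3 °C per cycle (ramp 0.3 °C/s).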

[2] = PET hydrolysis, aromatic products released after 48 h (umol product/mg enzyme); higher = more PET depolymerization activity
Procedure, shortened: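 Candidate enzymes, made tagless by SUMO cleavage and purified on nickel beads, were added at 5 μg (50 μL) to 3.5 mg of either amorphous PET film or crystalline PET powder in 450 μL buffer. The sealed plates stood unshaken for 48 h at 40 or 60 °C. Activity on PET is the aromatic product found in the supernatant per mg enzyme, read at 260 and 280 nm against buffer blanks.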

[3] = purified protein yield per well (BCA); higher = higher soluble expression
Procedure, shortened: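 On an OT-2 robot, lysed cells were processed by binding protein to Ni-charged magnetic beads and releasing it with SUMO protease. Expression took place in E. coli C41(DE3), in 2 mL autoinduction cultures with 100 µg/mL kanamycin, for 2 h at 37 °C followed by 40 h at 18 °C. The Pierce Rapid Gold BCA kit was used to quantify purified protein yield in each well, with values under 25 ug (0.1 mg/mL) below the detection threshold.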

[4] = substrate: cryPow, 40 °C, pH 5.5
[5] = substrate: cryPow, 40 °C, pH 6.5
[6] = substrate: cryPow, 40 °C, pH 7.5
[7] = substrate: cryPow, 40 °C, pH 8.5
[8] = substrate: cryPow, 60 °C, pH 5.5
[9] = substrate: cryPow, 60 °C, pH 6.5
[10] = substrate: cryPow, 60 °C, pH 7.5
[11] = substrate: cryPow, 60 °C, pH 8.5
[12] = substrate: aFilm, 40 °C, pH 4.5
[13] = substrate: aFilm, 40 °C, pH 5.5
[14] = substrate: aFilm, 40 °C, pH 6.5
[15] = substrate: aFilm, 40 °C, pH 7.5
[16] = substrate: aFilm, 60 °C, pH 4.5
[17] = substrate: aFilm, 60 °C, pH 5.5
[18] = substrate: aFilm, 60 °C, pH 6.5
[19] = substrate: aFilm, 60 °C, pH 7.5
[20] = substrate: cryPow, 40 °C, pH 4.5
[21] = substrate: cryPow, 60 °C, pH 4.5

| Sequence | melting temperature [1] [C] | PET hydrolysis [2, 4] | PET hydrolysis [2, 5] | PET hydrolysis [2, 6] | PET hydrolysis [2, 7] | PET hydrolysis [2, 8] | PET hydrolysis [2, 9] | PET hydrolysis [2, 10] | PET hydrolysis [2, 11] | purified protein yield per well [3] [µg] | PET hydrolysis [2, 12] | PET hydrolysis [2, 13] | PET hydrolysis [2, 14] | PET hydrolysis [2, 15] | PET hydrolysis [2, 16] | PET hydrolysis [2, 17] | PET hydrolysis [2, 18] | PET hydrolysis [2, 19] | PET hydrolysis [2, 20] | PET hydrolysis [2, 21] | PET hydrolysis ([2]; substrate: aFilm, 40 °C, pH 8.5) | PET hydrolysis ([2]; substrate: aFilm, 60 °C, pH 8.5) |
| --- | --- | --- | --- | --- | --- | --- | --- | --- | --- | --- | --- | --- | --- | --- | --- | --- | --- | --- | --- | --- | --- | --- |
| GTTASATTVSGTQAAAAQEYRRGPDPTAQSVEAATGPFAIQQTSVPAGNGFGGGTIYYPTDTSQGTFGAIAISPGWTEDQSAIAWLGPKLASNGFVVMTINNNNAFLDFPDARGTQLLAALDSLTGQSPVAGRIDKNRLAVAGHSMGGGGALRAAATRPEIQAAIPLTPWHLNQDWSSVRVPTLIVGGETDIIASVGAHSEPFYESLTNAPERAYLEMEGQGHFVTNSANPTVGRYVLSWLKRYVDNDTRYEQFLCPAPAPSSVISEYRDSCPGS [DP018] | 66.1 | < 3 | < 3 | < 3 | < 3 | < 3 | < 3 | < 3 | < 3 | 84 | – | – | – | – | – | – | – | – | – | – | – | – |
| ADNPYQRGPDPTPASVGASRGTFATAQVSVPAGNGFGGGVIYYPTDTSQGRFGAVAVVPGYTATWAAEGAWMGPWLASFGFVVIGIDTNSRNDWDTARGTQLLAALDYLTQRSSVRDRVDASRAAVMGHSMGGGGAIYAALQRPSLKTTVGLAPFSASQTLNNMRVPTMLLAGQNDGTTTPASIRNYYGQVPSGVEKAYLELTGAGHGFPTSNNPTMMRNVIPWLKIFVDSDTRYTQFLCPLSNTNGIRSYESTCPLVPSPVPTDPPTSAPPTSTPPTTPPPTTPPPTTPAPGGPCAASYRTVNSWSGGFQGEVTVRAGGAPINGWTVRWTLGGGQSISQVWNGTLSTSGSTATVRNAPYNGSLPASGSTTFGFIANGSPSAPTLTCASP [TEP013] | 64 | 5.5 ± 0.71 | 27 ± 1.4 | 53.5 ± 2.1 | – | < 3 | 6 ± 1.4 | 10 ± 1.4 | – | 176 | < 3 | < 3 | < 3 | < 3 | < 3 | < 3 | < 3 | < 3 | < 3 | < 3 | – | – |
| ADTPYERGPNPSESLIEQRRGNYDIAQRSISRFSSDGFRNGTIYYPTDTSDGKFGVIAISPGYTAGESSIAWLGSRIASFGFVVVTINTTTRYDQPRQRSTQLLAALDHAMNDSVVGPLIDPERQAVMGHSMGGGGALQAAESRPEIDAVVALTPWNLKKNWDGVDAATLIIGAERDTVASVRTHSIPFYESLTQAEQRGYLELRGASHFAPNVSNTTIAKYSIAWMKRYLDNDDRYDQFLNPGPAVGYASGVSDYRLQ [DP003] | 42.4 | < 3 | < 3 | < 3 | < 3 | < 3 | < 3 | < 3 | < 3 | 185 | – | < 3 | < 3 | < 3 | – | < 3 | < 3 | < 3 | – | – | 3 ± 4.2 | < 3 |
| ADNPYQRGPNPTLASVAANRGTFATAQTSVPAGNGFGGGVIYYPTDTSQTFGGVAIVPGYSALFANEEAWMGPWLASFGFVVIGIETNSRTDSADARGTQLLAALDYLTQRSSVRDRVDPNRLSVVGHSAGGAGVLSAILRRPTLKAGIGLAPGSPVGDYGLSNDRVPTMFISGQRDTTVTQSYLNGLYTTIPASTPSAWVEITGVDHLFATRANTTEMRVLIPWLKIWVDNDTRYTQFLCPLADSSNISMYRNKCPYVPPGGSPSPSASPSSSPSQSPSQSPSQSPSQSPSQSPSTSPSPPPPGACVAEYQPQNSWPGGYQALVTVKAGSSAINGWTVRWTLGSGQTISQAWNGTLSTSGSAVTVKNASYNGSLPAGGSTSFGFLATGTPSTPTLTCTSP [ESM013] | 59.8 | < 3 | < 3 | < 3 | – | < 3 | < 3 | < 3 | – | 431 | < 3 | < 3 | < 3 | < 3 | < 3 | < 3 | < 3 | < 3 | < 3 | < 3 | – | – |
| ASPYQRGPNPTAASIAATTGPFAIASITVPRGNGFGGGVIYYPTSTSQGTFGGIAISPGLNGTWSGISWLGPRLASQGFVVFGIETNNLNDSPTSRGTQLLAALDYLTQRSSVRSRLDANRLAVMGHSMGGGGALDAALRRPTLKATIGNAPHLPSGSLANDRVPTLIYAMQNDTLVTPARLTSLYNTIPAATERAYIEVTGAGHNYIGQPSTTLARTMIPWLKIFIDSDTRYAPFLCPLNDRSGIRQYRNSCPLI [ESM128] | 66.4 | 43 | 75 ± 1.4 | 110 ± 4.2 | – | 4.5 ± 0.71 | 18.5 ± 3.5 | 41.5 ± 6.4 | – | 407 | < 3 | < 3 | < 3 | 6 | < 3 | < 3 | < 3 | < 3 | < 3 | < 3 | – | – |
